# Results from patent publication US20130115678.
# Tests used:
# Test in all cases: cleavage_in_vitro
# [1] = target: T1, BamHI-HF E163A/E167T (Bacillus amyloliquefaciens) (UniProt P23940); conditions: NEB4, 37 C, Mg2+; FI NEB1-3: >=4000, >=4000, >=250
# T1 sequence: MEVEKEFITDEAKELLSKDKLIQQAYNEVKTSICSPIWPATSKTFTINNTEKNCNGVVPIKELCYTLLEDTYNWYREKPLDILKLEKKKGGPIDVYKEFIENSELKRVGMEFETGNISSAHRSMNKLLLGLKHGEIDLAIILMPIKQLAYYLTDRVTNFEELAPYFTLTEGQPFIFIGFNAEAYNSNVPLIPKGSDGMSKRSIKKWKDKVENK
# [2] = tested on: BstXI (Bacillus stearothermophilus); conditions: NEB4, 55 C, Mg2+; FI NEB1-3: 2, 2, 2
# [3] = target: EcoRI (Escherichia coli RY13) (UniProt P00642); conditions: NEB4, 37 C, Mg2+; FI NEB1-3: 250, 4, 250
# [4] = target: T2, HindIII (Haemophilus influenzae Rd) (UniProt P43870); conditions: NEB4, 37 C, Mg2+; FI NEB1-3: 32, 250, 4000
# T2 sequence: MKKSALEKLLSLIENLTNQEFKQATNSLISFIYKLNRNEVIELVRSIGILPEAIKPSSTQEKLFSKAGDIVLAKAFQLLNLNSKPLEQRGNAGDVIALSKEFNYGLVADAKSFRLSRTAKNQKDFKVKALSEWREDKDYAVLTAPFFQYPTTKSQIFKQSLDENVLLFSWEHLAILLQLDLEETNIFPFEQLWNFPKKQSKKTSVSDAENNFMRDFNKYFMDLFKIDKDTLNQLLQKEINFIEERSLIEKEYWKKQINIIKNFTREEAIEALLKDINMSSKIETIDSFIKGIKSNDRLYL
# [5] = target: T3, HpaI (Haemophilus parainfluenzae) (UniProt P29537); conditions: NEB4, 37 C, Mg2+; FI NEB1-3: 32, 1, 2
# T3 sequence: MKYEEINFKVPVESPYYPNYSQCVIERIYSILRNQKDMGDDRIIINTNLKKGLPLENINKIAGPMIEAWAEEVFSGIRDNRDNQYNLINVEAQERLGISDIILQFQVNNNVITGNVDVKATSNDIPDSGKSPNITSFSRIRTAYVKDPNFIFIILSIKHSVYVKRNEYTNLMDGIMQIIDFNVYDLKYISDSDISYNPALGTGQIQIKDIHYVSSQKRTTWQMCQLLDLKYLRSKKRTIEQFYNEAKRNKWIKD
# [6] = tested on: T4, NcoI-HF A2T/R31A (Nocardia corallina); conditions: NEB4, 37 C, Mg2+; Table 3 prints >=64000; FI NEB1-3: >=4000, >=4000, >=1000
# T4 sequence: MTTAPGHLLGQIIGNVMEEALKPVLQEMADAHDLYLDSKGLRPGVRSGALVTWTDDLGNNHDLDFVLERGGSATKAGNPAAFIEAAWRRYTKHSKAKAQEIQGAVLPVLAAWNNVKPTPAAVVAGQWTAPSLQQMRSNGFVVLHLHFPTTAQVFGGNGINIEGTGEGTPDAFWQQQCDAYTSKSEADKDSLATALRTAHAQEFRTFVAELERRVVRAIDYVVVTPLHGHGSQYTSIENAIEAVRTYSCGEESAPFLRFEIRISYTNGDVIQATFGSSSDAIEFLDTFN
# [7] = tested on: T5, SbfI-HF K251A (Streptomyces species Bf-61); conditions: NEB4, 37 C, Mg2+; FI NEB1-3: 1000, 120, 8
# T5 sequence: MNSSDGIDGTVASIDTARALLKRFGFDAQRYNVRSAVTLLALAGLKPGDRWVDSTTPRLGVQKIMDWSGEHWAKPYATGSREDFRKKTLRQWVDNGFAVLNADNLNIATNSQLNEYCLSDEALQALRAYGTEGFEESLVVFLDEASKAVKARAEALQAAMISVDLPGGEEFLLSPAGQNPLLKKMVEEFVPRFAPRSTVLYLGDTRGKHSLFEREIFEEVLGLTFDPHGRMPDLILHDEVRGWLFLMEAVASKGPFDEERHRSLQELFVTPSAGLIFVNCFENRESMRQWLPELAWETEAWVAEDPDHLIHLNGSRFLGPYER
# [8] = tested on: T6, SphI-HF K100A (Streptomyces phaeochromogenes); conditions: NEB4, 37 C, Mg2+; FI NEB1-3: 4000, 2000, 250
# T6 sequence: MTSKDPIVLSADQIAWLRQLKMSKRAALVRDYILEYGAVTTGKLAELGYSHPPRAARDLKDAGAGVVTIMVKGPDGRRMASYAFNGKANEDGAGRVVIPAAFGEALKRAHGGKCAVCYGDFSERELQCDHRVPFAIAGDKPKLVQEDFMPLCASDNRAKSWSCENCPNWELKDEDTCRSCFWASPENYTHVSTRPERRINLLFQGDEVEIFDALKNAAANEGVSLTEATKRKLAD
# [9] = tested on: T7, SspI-HF Y98F (Sphaerotilus species); conditions: NEB4, 37 C, Mg2+; FI NEB1-3: >=4000, 120, >=32
# T7 sequence: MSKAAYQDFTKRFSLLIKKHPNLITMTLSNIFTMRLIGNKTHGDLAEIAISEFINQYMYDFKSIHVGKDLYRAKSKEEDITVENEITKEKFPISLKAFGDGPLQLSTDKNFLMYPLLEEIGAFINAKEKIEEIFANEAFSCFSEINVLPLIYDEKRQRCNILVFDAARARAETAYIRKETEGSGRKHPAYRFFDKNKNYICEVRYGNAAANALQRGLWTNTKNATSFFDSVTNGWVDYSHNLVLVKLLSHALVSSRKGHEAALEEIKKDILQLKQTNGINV
substance,measurement,setting,value
lambda phage DNA,activity (fidelity index),[1],> 4000
same,activity (fidelity index),[2],4
same,activity (fidelity index),[3],4
same,activity (fidelity index),[4],32
same,activity (fidelity index),[5],16
same,activity (fidelity index),[6],> 16000
same,activity (fidelity index),[7],250
same,activity (fidelity index),[8],8000
same,activity (fidelity index),[9],500
